Experimental data published in the nanobody polyreactivity screen of Harvey et al. (2022).

assay: yeast display, Sf9 membrane polyspecificity reagent, FACS + sequencing; frameworks hold sequencing errors
Outline: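 A nanobody's polyreactivity label depends on the gate it was sorted from. Yeast display cells were stained with 10% biotinylated, detergent-solubilized Sf9 membrane reagent for 1 hour at 4 °C, enriched on streptavidin microbeads and sorted by FACS. The low and high (top ~1%) gates were set on anti-HA fluorescence for expression and streptavidin fluorescence for reagent binding.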

Sequence | polyreactivity (PSR sort gate)
QVQLVESGGGLVQAGGSLRLSCAASGSTFYSYAMGWYRQAPGKERELVAAITSGGSTNYADSVKGRFTISRDNAKNTVYLQMNRLKPEDTAVYYCARKYWHRSYGYDYWGQGTQVTVSS | low polyreactivity
QVQLVESGGGLVQAGGSLRLSCAASGSTFYSYAMGWYRQAPGKERELVAAITYSDGDTYYADSVKGRFTISRDNAKNTVYLQMNSLKPEDTAVYYCAAEYQGQPGTGNLEYWGQGTQVTVSS | low polyreactivity
QVQLVESGGGLVQAGGSLRLSCAASGSTFYSYAMGWYSQAPGKERELVARIRWSGYTYSADSVKGRFTISRDNAKNTVYLQMNSLKPEDTAVSYCAAKRGFHIADYWGQGTQVTVSS | high polyreactivity
QVQLVESGGGLVQAGGSLRLSCAASGSTFYTNAMGWSRQAPGKQREFVAALSGRGSNTYYADSVKGRFTISRYNAKNTVYLQMNSLKPEDTAVYYCAARRLAGFGYWGQGTQVTVSS | high polyreactivity
QVQLVESGGGLVQAGGSLRLSCAASGSTFYTNAMGWYRQAPGKERELVAAISYSGGGTYYADSVKGRFTISRDNAKNTVYLQMNSLKPEDTAVYYCAADTLQRAFVLYDYWGQGTQVTVSS | high polyreactivity
QVQLVESGGGLVQAGGSLRLSCAASGSTFYTNDMGWYRQAPGKERELVAAITSAGNTNYADSVKGRFTISRDNAKNTVYLQMNSLKPEDTAVYYYYYYQYDYWGQGTQVTVSS | low polyreactivity
QVQLVESGGGLVQAGGSLRLSCAASGSTFYTYAMGWYRQAPGKERELVAAISWRTGSTYYADSVKGRFTISRDNAKNTVYLQMNSLKPEDTAVYYCATDYYIDTWDWYEEYEYWGQGTQVTVSS | high polyreactivity
QVQLVESGGGLVQAGGSLRLSCAASGSTFYTYAMGWYRQAPGKERELVATISRGGGRTYYADSVKGRFTISRDNAKNTVYLQMNSLKPEDTAVYYCAARLYSSSYNSEQYYYWGQGTQVTVSS | high polyreactivity
QVQLVESGGGLVQAGGSLRLSCAASGSTFYTYTMGWYRQAPGKERELVAAISSSGGDTYYADSVKGRFTISRDNAKNTVYLQMNSLKPEDSAVYYCAALGAFPSLEFDYWGQGTQVTVSS | low polyreactivity
QVQLVESGGGLVQAGGSLRLSCAASGSTFYTYTMGWYRQAPGKERELVAAITWSGGSTYYADSVKGRFTISRDNANNTVYLQMNSLKPEDTAVYYCNADQDYKGARPSGMDYCGQGTQVTVSS | low polyreactivity
QVQLVESGGGLVQAGGSLRLSCAASGSTFYVNAMGWYRQAPGTERELVAAIRSAGRTNYADSVKGRFTSSRDNAKNTVYLQMNSLKPEDTAVYYCAAEVPHWPYYGRLHDRDYWGQGTQVTVSS | low polyreactivity
QVQLVESGGGLVQAGGSLRLSCAASGSTFYVNTMGWYRQAPGKERELVAAITATGASTYYADSVKGRFTISRDNAKNTVYLQMNSLKPEDTAVYYCNVRLRIRSGYWGQGTQVTVSS | high polyreactivity
QVQLVESGGGLVQAGGSLRLSCAASGSTFYVNTMGWYRQAPGKERELVATITASDGSTYADSVKGRFTISRDNAKNTVYLQMNSLKPDDTAVYYCNADTRTQGPYSAPYYREMNYWGQGTQVTVSS | low polyreactivity
QVQLVESGGGLVQAGGSLRLSCAASGSTFYVYAMGWYRQAPGKERELVAAISRSGGSTYYADSVKGRFTISRDNAKNTVYLQMNSLKPEDTAVYYCAARGYSTYPMDYWGQGTQVTVSS | high polyreactivity
QVQLVESGGGLVQAGGSLRLSCAASGSTFYVYAMGWYRQAPGKERELVAAITSGTSTYYADSVKGRFTISRDNAKNTVYLQMNSLKPEDTAVYYCAAYSYYYRFPYYYWGQGTQVTVSS | high polyreactivity
QVQLVESGGGLVQAGGSLRLSCAASGSTFYVYAMGWYRQAPGKERELVASINSGGITNYADSVKGRFTISRDNAKNTVYLQMNSLKPEDTAVYYCAARSYKTGRYPQRNKYYYWGQGTQVTVSS | high polyreactivity
QVQLVESGGGLVQAGGSLRLSCAASGSTFYVYAMGWYRQAPGKVREFVATISTSGAITYYADSVKGRFTISRDNAKNTVYLQMNSQKPEDTAVYYCARSGSLLSQVWYNYWGQGTQVTVTS | low polyreactivity
QVQLVESGGGLVQAGGSLRLSCAASGSTFYVYDMGCYRQAPGKEREWVAAISSGAGSTYYADSVKGRFTISRDNAKNTVYLQMNSLKRKIPRSITALLFTVNGGGSRSHDYWAQGTQVTVSS | low polyreactivity
QVQLVESGGGLVQAGGSLRLSCAASGSTFYVYDMGWYRQAPGKERELVADISWSGGSTYADSVKGRFTISRDNAKNTVYLQMNSLKPEDTAVYYCAATSRPRPYHGGRMYYWGQGTQVTVSS | high polyreactivity
QVQLVESGGGLVQAGGSLRLSCAASGSTFYWNAMGWYRQAPGKESEFVARISSRGGSTYYADSVKGRFTISRDNAKNTVYLQMNSLKPEDTAVYYCAARLRRTQTYSSGRPGDYWGQGTQVTVSS | high polyreactivity
QVQLVESGGGLVQAGGSLRLSCAASGSTFYWYTMGWYRQAPGKERELVARISSSGSTNYADSVKGRFTISRDNAKNTVYLQMNSLKPEDTAVYYCNKDWIYRGYDYWGQGTQVTVSS | high polyreactivity
QVQLVESGGGLVQAGGSLRLSCAASGSTFYWYTMGWYRQAPGKERELVATITSVGRTNYADSVKGRFTISRDNAKNTVYLQMNSLKPEDTAVYYCAADSYSYRYYYWGQGTQVTVSS | high polyreactivity

Sequence | polyreactivity (PSR sort gate)
QVQLVESGGGLVQAGGSLRLSCAASGSTFYYNAMGWYRQAPGKEREFVAAISSRGGSTYYADSVKGRFTISRDNAKNTVYLQMNSLKPEDTAVYYCAAKYRHRYDWGQGTQVTVSS | high polyreactivity
QVQLVESGGGLVQAGGSLRLSCAASGSTFYYNAMGWYRQAPGKERELVARISRSGGSTYADSVKGRFTISRDNAKKTVSFQMNSLKPEDTAVYYCNADAYGTQEFTSYAVRYDYWGQGTEVTVSS | low polyreactivity
QVQLVESGGGLVQAGGSLRLSCAASGSTFYYNAMGWYRQAPGKERELVAVINSGGSTYYADSVKGRFTISRDNAKNTVYLQMNSLKPEDTAVYYCARRRRESRQDGDYWGQGTQVTVSS | high polyreactivity
QVQLVESGGGLVQAGGSLRLSCAASGSTFYYNAMVWYRQAPGKEREFVASISWRGGRTYYADSVKGRFTISRDNAKNTVYLQMNSLKQEDTAVYYCAKGYLALGQPDDYWGQGTQVTVSS | high polyreactivity
QVQLVESGGGLVQAGGSLRLSCAASGSTFYYNGMGWYRQAPGKEREFVAAITSSGTSTHYADSVKGRFTISRDNAKNTVYLQMNSLKPEDTAVYYCNRYGAHVSTAYYYWGQGTQVTVSS | high polyreactivity
QVQLVESGGGLVQAGGSLRLSCAASGSTFYYNSMGWYRQAHGKERQLVAAISKSSTRTYYADSVKGRFTISRDNAQNTVYLQMNSLKPEDTAVYYCAARQWRRSRFDYWGQGTQVNVSS | high polyreactivity
QVQLVESGGGLVQAGGSLRLSCAASGSTFYYYAMGWYRQAPGKEREFVAAISWRGGSTYYADSVKGRFTISRDNAKNTVYLQMNSLKPEDTAVYYCAATTLYRGVYYRIFGWGYERGHWGQGTQVTVSS | low polyreactivity
QVQLVESGGGLVQAGGSLRLSCAASGSTFYYYAMGWYRQAPGKERELVAAIDWSGESTYYADSVKGRFTISRDNAKNTVYLQMNSLKPEDTAVYYCAADLGYPWGYVLFYKQSFSYYYWGQGTQVTVSS | low polyreactivity
QVQLVESGGGLVQAGGSLRLSCAASGSTFYYYAMGWYRQAPGKERELVAAISVSGASKYYADSVKGRFTISRDNAKNTVYLQMNSLKPEDTAVYYCAADEGYPGDGDYWGQGTQVTVSS | low polyreactivity
QVQLVESGGGLVQAGGSLRLSCAASGSTFYYYAMGWYRQAPGKERELVAAITYRGGSTYYADSVKGRFTISRDNAKNTVYLQMNSLKPEDTAVFYCAIVGYKTSSIRYGYWGQGTQVTVSS | high polyreactivity
QVQLVESGGGLVQAGGSLRLSCAASGSTFYYYAMGWYRQAPGKERELVASISFSGGSTYYADSVKGRFTISRDNAKNTVYLEMNRLKPEDTAVYYCGYYYWGQGTQVTVSS | low polyreactivity
QVQLVESGGGLVQAGGSLRLSCAASGSTFYYYAMGWYRQAPGKERELVASISGGGSTSYADSVKGRFTISRDNAKNTVYLQMNSLKPEDNAVYYCNADPSEYDPNYVVVFSPQKYDYCGQGTQVTVSS | low polyreactivity
QVQLVESGGGLVQAGGSLRLSCAASGSTFYYYAMGWYRQATGKERELVAAISGRGGSTYYADSVKGRFTISRDNAKNTVYLQMNSLKPEDTAVYYCNKRRAAGGFPYDYWGQGTQVTVSS | high polyreactivity
QVQLVESGGGLVQAGGSLRLSCAASGSTFYYYAMGWYRQPPGKERELVASITTGGGSTYYADSVKGRFTISRDNAKNTVYLQMNSLKPEDTAVYYCAAALAYYYWWYDYWGQGTQVTVSS | low polyreactivity
QVQLVESGGGLVQAGGSLRLSCAASGSTFYYYTMGWYRQAPGKEREFVAAITVGGGSTYYADSEKGRFTISRDNAKNTVYLQMNSLKPEDTAVYYCAKEVGRYLGTVSYEYDYWGQGTQVTVSS | high polyreactivity
QVQLVESGGGLVQAGGSLRLSCAASGSTFYYYTMGWYRQAPGKEREFVADITNRGGSTYYADSVKGRFTISRDNAKNTVYLQMNSLKPEDTAVYYCAARFSPWYWAGDYDYWGQGTQVTVSS | high polyreactivity
QVQLVESGGGLVQAGGSLRLSCAASGSTGWYDRGWYRQAPGKERELVASISSGDSTNYADSVKGRFTISRDNAKNTVYLQMNSLKPEDTAVYYCAADFNVGFVWGDDYDYWGQGTQVTVSS | low polyreactivity
QVQLVESGGGLVQAGGSLRLSCAASGSTIADKAMGWYRQAPGKERELVAAITRSGVRTYYADSVKGRFTISRDNAKNTVYLQMNSLKPEDTAVYYCAKRTYPSRIYDYWGQGTQVTVSS | low polyreactivity
QVQLVESGGGLVQAGGSLRLSCAASGSTIAFYDMGWYRQAPGKEREMVAAISQSDGDTYYADSVKGRFTISRDNAKNTVYLQMNSLKPEDTAVYYCARPSFTSGYQSYDYWGQGTQVTVSS | low polyreactivity
QVQLVESGGGLVQAGGSLRLSCAASGSTIATYTMGWYRQAPGKERELVAAISVSGSRTYYADSVKGRFTISRDNAKNTVYLQMNSLIPEDTAVYYCNADPPVKLYLYDYWGQGTQVTVSS | high polyreactivity
QVQLVESGGGLVQAGGSLRLSCAASGSTIDGYAMAWYRQAPGKERELVAAISRRGGSTYYADSVKGRFTISRDNATNTVYLLMNSLTPEDTAVYYCNRYPPRRYYARYYSWGQGTQVTVSS | high polyreactivity
